In patent US20240052036A1 (Merck Sharp & Dohme, published 2024):

Biological target: T1, recombinant human LAG-3 (rhLAG-3) (human, UniProt P18627 23-450, limits assumed)
T1 construct: also called CD223
T1 sequence (looked up): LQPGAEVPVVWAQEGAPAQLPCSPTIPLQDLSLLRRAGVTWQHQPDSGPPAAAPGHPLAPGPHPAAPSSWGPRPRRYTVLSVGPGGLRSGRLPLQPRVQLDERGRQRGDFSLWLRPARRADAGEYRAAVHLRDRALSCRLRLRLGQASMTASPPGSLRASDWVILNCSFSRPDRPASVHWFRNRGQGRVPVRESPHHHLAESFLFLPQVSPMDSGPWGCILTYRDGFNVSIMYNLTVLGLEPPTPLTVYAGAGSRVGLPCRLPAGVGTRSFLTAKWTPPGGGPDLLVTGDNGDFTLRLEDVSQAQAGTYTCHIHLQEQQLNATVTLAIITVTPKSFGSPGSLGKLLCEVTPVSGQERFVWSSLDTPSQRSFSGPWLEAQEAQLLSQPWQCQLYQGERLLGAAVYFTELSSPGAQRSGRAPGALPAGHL
Experiment: binding ELISA, immobilized rhLAG-3, 4-parameter fit, relative potency
Description: The potency assay assesses anti-LAG3 activity in Formulation A through anti-LAG3 binding to immobilized recombinant human LAG-3 (rhLAG-3). Dose response curves were generated by using serial dilutions of anti-LAG3 reference material and test samples. […] Relative potency was calculated by applying Parallel Line Analysis of dose-response curves in SoftMax® Pro. Potency of a test sample was reported as geometric mean potency relative to the reference material with a geometric standard deviation and 95% confidence interval.

- binding result: binds
B1: anti-LAG3 antibody (SEQ ID NOs: 35 and 57, light and heavy chains) (antibody, human IgG4 S228P, kappa, V domains shown)
VH: QMQLVQSGPEVKKPGTSVKVSCKASGYTFTDYNVDWVRQARGQRLEWIGDINPNDGGTIYAQKFQERVTITVDKSTSTAYMELSSLRSEDTAVYYCARNYRWFGAMDHWGQGTTVTVSS
VL: DIVMTQTPLSLSVTPGQPASISCKASQSLDYEGDSDMNWYLQKPGQPPQLLIYGASNLESGVPDRFSGSGSGTDFTLKISRVEAEDVGVYYCQQSTEDPRTFGGGTKVEIKR
notes: Tested in Formulation A (25 mg/mL antibody, 50 mg/mL sucrose, 0.2 mg/mL polysorbate 80, 10 mM histidine pH 5.8, 70 mM L-arginine-HCl); also called Ab6; anti-LAG3 drug product
